# B1: EcXA186: antisense clone insert to E. coli yagG (nucleic acid, listed as Escherichia coli)
# antisense: AGCAAAGCGAGCCGAACATGGTGGCGAGGCTGCCGTAAAGTAAAAACTGGGTCGCCAACTCCGGGTGATCCATCACGTATTTCACGAAGTAGAGCGTCGCCCCGCCGCGCACCACGTTGGAGCAGGTCGCCATCATCTTGAACGCGCACATGATGCGCCACTGGCTGTTGCCCAGC
# B2: EcXA187: antisense clone insert to E. coli b2271 (nucleic acid, listed as Escherichia coli)
# antisense: TNNCANNNNCNNNNNNNNNNNNNNNNCNCNNTNCCTAGANTNTCNANGTCTNCNCNCNCNTNNCCNNNCCCTTCNNNNCCNNNNANANGNNCNNCNCCCCCNNNCCCNNTTTTGTTTTGGAAANTCCGTTTCAGGAANAGCTTCTGAATCCCGANCGNTTGATAACTGNNGGCCAGAGTCATAATGCGCACCAATAATAATCAGCGGNCCATCGGCAGGACCATAATCAGCAACAATGNNNNGGTAGGGGCCACCCGTAATGGGGACCGTCCTGCGAGGTAACTCTGGCACCGCTACTGACAAAGACCTCTTTTATATATTCTGCGGGACCTATTCAGATTATCAATATTGTCNGGCACTACGTGGATGCACAAGTTTGTGTAAGATAACGAACTGNTTTTTCTAATTGCTCAGGACTTTGCGTGTCGGGGCCGTTGACGGTAATGCATTGACCCAGGGTTGGTAAAAAATAATCATAGGGAGTAAAAACACAAATAATATAATAAAAGCCAAGATTATTTTTTTCATATGCAAAATTATTAATGGGGTTGCGTTTGGTGAATCATTATNTTGCTATGGGTTTCGATATTGNGATTTTAATTAAAGATTAAGCANGGGATTATACCAAAAGA
# modifications: misc_feature (1)...(632): n = A,T,C or G
# notes: antisense clone insert to E. coli b2271
# B3: EcXA192: antisense clone insert to E. coli rbsC, rpsB (nucleic acid, listed as Escherichia coli)
# antisense: AGCGCAACAGCGGAAACCAGGGTAGCCAGTTTTTTCATGTTCATATTCAAGATGTCCTGTAGTCGTTATTACTGCTTTTTGTTGTCTACCAGCACCGCCAGCAAAATCACCACCGCTTTGACGATCATCTGGTAATAGGAGGAAACACCTAACAAATTCAATCCATTATTAAGGAAGCCAAGAATTAATGCGCCGATCAACGTCCCAACAATGCGACCTTT
# Tested on: Klebsiella pneumoniae
# Assay: Growth inhibition by induced E. coli antisense RNA in Klebsiella pneumoniae
# Assay type: cell-based
# Parameters: key: +: a positive in Table V below means that at least 10 fold more cells were required to observe a colony on the induced plate than on the non-induced plate; −: If there was no effect of antisense RNA expression in a microorganism, the clone is minus in Table V below
# Settings: antisense RNA expression induced with IPTG, serial dilution plating
# Summary of the method: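 Overnight cultures were diluted 10^2 to 10^8-fold and spotted on selective plates with or without 1 mM IPTG to induce antisense RNA from transformed E. coli sequences. After overnight growth, induced vs uninduced was scored as the log difference in the highest dilution giving colonies. No effect scores 0 (or minus); a positive score means at least 10-fold more cells were needed.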
row,Molecule,"Sensitivity of K. pneumoniae to antisense nucleic acid (growth inhibition, induced vs. uninduced)"
1,B1,−
2,B2,+ (a positive in Table V below means that at least 10 fold more cells were required to observe a colony on the induced plate than on the non-induced plate)
3,B3,−

# From patent US20020022718A1, “Genes identified as required for proliferation of E. coli” (priority 1999, published 2002)
